In patent publication US20250034594A1, “RNA-GUIDED GENOME RECOMBINEERING AT KILOBASE SCALE” (THE BOARD OF TRUSTEES OF THE LELAND STANFORD JUNIOR …, priority 2021, published 2025):

B1: Homolog_T13: RecT, Salmonella enterica subsp. enterica serovar Javiana str. 10721; SEQ ID NO: 137 (protein, listed as Salmonella enterica)
chain: MPKQPPIAKADLQKTQGARTPTAVKNNNDVISFINQPSMKEQLAAALPRHMTAERMIRIATTEIRKVPALGDCDTMSFVSAIVQCSQLGLEPGGALGHAYLLPFGNRNEKSGKKNVQLIIGYRGMIDLARRSGQIASLSARVVREGDDFSFEFGLEEKLVHRPGENEDAPVTHVYAVARLKDGGTQFEVMTRKQIELVRAQSKAGNNGPWVTHWEEMAKKTAIRRLFKYLPVSIEIQRAVSMDEKETLTIDPADASVITGEYSVVENAGVEENVTA
B2: Homolog_T14: RecT, Pseudobacteriovorax antillogorgiicola; SEQ ID NO: 139 (protein, listed as Pseudobacteriovorax antillogorgiicola)
chain: MGHLVSKTEQDYIKQHYAKGATDQEFEHFIGVCRARGLNPAANQIYFVKYRSKDGPAKPAFILSIDSLRLIAHRTGDYAGCSEPIFTDGGKACTVTVRRNLKSGETGNFSGMAFYDEQVQQKNGRPTSFWQSKPRTMLEKCAEAKALRKAFPQDLGQFYIREEMPPQYDEPIQVHKPKALEEPRFSKSDLSRRKGLNRKLSALGVDPSRFDEVATFLDGTPDRELGQKLKLWLKEAGYGVNQ
B3: EcRecE_587: Escherichia coli RecE truncated from AA587; SEQ ID NO: 2 (protein)
chain: ADPVIVEDIEPGIYYGISNENYHAGPGVSKSQLDDIADTPALYLWRKNAPVDTTKTKTLDLGTAFHCRVLEPEEFSNRFIVAPEFNRRTNSGKEEEKAFLRECASTGKTVITAEEGRKIELMYQSVMALPLGQWLVESAGHAESSIYWEDPETAILCRCRPDKIIPEFHWIMDVKTTADIQRFKTAYYDYRYHVQDAFYSDGYEAQFGVQPTFVFLVASTTIECGRYPVEIFMMGEEAKLAGQLEYHRNLRTLADCLNTDEWPAIKTLSLPRWAKEYAND
B4: RecE_CTD: carboxy terminus domain of E. coli RecE; SEQ ID NO: 3 (protein)
chain: GISNENYHAGPGVSKSQLDDIADTPALYLWRKNAPVDTTKTKTLDLGTAFHCRVLEPEEFSNRFIVAPEFNRRTNSGKEEEKAFLRECASTGKTVITAEEGRKIELMYQSVMALPLGQWLVESAGHAESSIYWEDPETAILCRCRPDKIIPEFHWIMDVKTTADIQRFKTAYYDYRYHVQDAFYSDGYEAQFGVQPTFVFLVASTTIECGRYPVEIFMMGEEAKLAGQLEYHRNLRTLADCLNTDEWPAIKTLSLPRWAKEYAND
B5: Homolog_E14: RecE, Pseudobacteriovorax antillogorgiicola; SEQ ID NO: 140 (protein, listed as Pseudobacteriovorax antillogorgiicola)
chain: MSKLSNLKVSNSDVDTLSRIRMKEGVYRDLPIESYHQSPGYSKTSLCQIDKAPIYLKTKVPQKSTKSLNIGTAFHEAMEGVFKDKYVVHPDPGVNKTTKSWKDFVKRYPKHMPLKRSEYDQVLAMYDAARSYRPFQKYHLSRGFYESSFYWHDAVTNSLIKCRPDYITPDGMSVIDFKTTVDPSPKGFQYQAYKYHYYVSAALTLEGIEAVTGIRPKEYLFLAVSNSAPYLTALYRASEKEIALGDHFIRRSLLTLKTCLESGKWPGLQEEILELGLPFSGLKELREEQEVEDEFMELVG
B6: RecE: Escherichia coli RecE exonuclease; SEQ ID NO: 1 (protein, listed as Escherichia coli)
chain: MSTKPLFLLRKAKKSSGEPDVVLWASNDFESTCATLDYLIVKSGKKLSSYFKAVATNFPVVNDLPAEGEIDFTWSERYQLSKDSMTWELKPGAAPDNAHYQGNTNVNGEDMTEIEENMLLPISGQELPIRWLAQHGSEKPVTHVSRDGLQALHIARAEELPAVTALAVSHKTSLLDPLEIRELHKLVRDTDKVFPNPGNSNLGLITAFFEAYLNADYTDRGLLTKEWMKGNRVSHITRTASGANAGGGNLTDRGEGFVHDLTSLARDVATGVLARSMDLDIYNLHPAHAKRIEEIIAENKPPFSVFRDKFITMPGGLDYSRAIVVASVKEAPIGIEVIPAHVTEYLNKVLTETDHANPDPEIVDIACGRSSAPMPQRVTEEGKQDDEEKPQPSGTTAVEQGEAETMEPDATEHHQDTQPLDAQSQVNSVDAKYQELRAELHEARKNIPSKNPVDDDKLLAASRGEFVDGISDPNDPKWVKGIQTRDCVYQNQPETEKTSPDMNQPEPVVQQEPEIACNACGQTGGDNCPDCGAVMGDATYQETFDEESQVEAKENDPEEMEGAEHPHNENAGSDPHRDCSDETGEVADPVIVEDIEPGIYYGISNENYHAGPGISKSQLDDIADTPALYLWRKNAPVDTTKTKTLDLGTAFHCRVLEPEEFSNRFIVAPEFNRRTNAGKEEEKAFLMECASTGKTVITAEEGRKIELMYQSVMALPLGQWLVESAGHAESSIYWEDPETGILCRCRPDKIIPEFHWIMDVKTTADIQRFKTAYYDYRYHVQDAFYSDGYEAQFGVQPTFVFLVASTTIECGRYPVEIFMMGEEAKLAGQQEYHRNLRTLADCLNTDEWPAIKTLSLPRWAKEYAND
B7: Homolog_E13: RecE, Salmonella enterica subsp. enterica serovar Javiana str. 10721; SEQ ID NO: 138 (protein, listed as Salmonella enterica)
chain: MYYDIPNEAYHAGPGVSKSQLDDIADTPAIYLWRKNAPVDTEKTKSLDTGTAFHCRVLEPEEFSKRFIIAPEFNRRTSAGKEEEKTFLEECTRTGRTVLTAEEGRKIELMYQSVMALPLGQWLVESAGYAESSVYWEDPETGILCRCRPDKIIPEFHWIMDVKTTADIQRFRTAYYDYRYHVQDAFYSDGYRAQFGEIPTFVFLVASTTAECGRYPVEIFMMGEDAKLAGQREYRRNLQTLAECLNNDEWPAIKTLSLPRWAKENANA
B8: Homolog_E15: RecE, Photobacterium sp. JCM 19050; SEQ ID NO: 142 (protein, listed as Photobacterium sp.)
chain: MAERVRTYQRDAVFAHELKAEFDEAVENGKTGVTLEDQARAKRMVHEATTNPASRNWFRYDGELAACERSYFWRDEEAGLVLKARPDKEIGNNLIDVKSIEVPTDVCACDLNAYINRQIEKRGYHISAAHYLSGTGKDRFFWIFINKVKGYEWVAIVEASPLHIELGTYEVLEGLRSIASSTKEADYPAPLSHPVNERGIPQPLMSNLSTYAMKRLEQFREL
B9: Homolog_T15: RecT, Photobacterium sp. JCM 19050; SEQ ID NO: 141 (protein, listed as Photobacterium sp.)
chain: MNTDMIAMPPSPAISMLDTSKLDVMVRAAELMSQAVVMVPDHFKGKPADCLAVVMQADQWGMNPFTVAQKTHLVSGTLGYESQLVNAVISSSKAIKGRFHYEWSDGWERLAGKVQYVKESRQRKGQQGSYQVTVAKPTWKPEDEQGLWVRCGAVLAGEKDITWGPKLYLASVLVRNSELWTTKPYQQAAYTALKDWSRLYTPAVMQGSMTGKSWSLTGRLISPR

Experiments:
Type in all cases: cell-based, human
HSP90AA1 locus = experiment: mKate knock-in gene-editing assay, RecE/RecT homologs, HSP90AA1 locus; conditions: HEK293 cells, MCP fusion, n=3
Experimental: (§1) Transfection HEK293T cells were seeded into 96-well plates (Corning) 12-24 hours prior to transfection at a density of 30,000 cells/well, and 250 ng of total DNA was transfected per well. HeLa and HepG2 cells were seeded into 48-well plates (Corning) one day prior to transfection at a density of 50,000 and 30,000 cells/well respectively, and 400 ng of total DNA was transfected per well. Transfections were performed with Lipofectamine 3000 (Life Technologies) following the manufacturer's instructions.
(§2) Fluorescence-activated cell sorting (FACS) mKate knock-in efficiency was analyzed on a CytoFLEX flow cytometer (Beckman Coulter; Stanford Stem Cell FACS Core). 72 hours after transfection, cells were washed once with PBS and dissociated with TrypLE Express Enzyme (Thermo Fisher Scientific). Cell suspension was then transferred to a 96-well U-bottom plate (Thermo Fisher Scientific) and centrifuged at 300×G for 5 minutes. After removing the supernatant, pelleted cells were resuspended with 50 μl 4% FBS in PBS, and cells were sorted within 30 minutes of preparation.
(§3) 15 different species of microbes having RecE/RecT proteins were selected for a screen of various RecE and RecT proteins across the microbial kingdom (Table 3). Each protein was codon-optimized and synthesized. As previously described for E. coli RecE/RecT based REDIT systems, each protein was fused via E-XTEN linker to the MCP protein with additional nuclear localization signal. mKate knock-in gene-editing assay was used to measure efficiencies at DYNLT1 locus (FIG. 26A, Table 4) and HSP90AA1 locus (FIG. 26B, Table 4).

DYNLT1 locus = experiment: mKate knock-in gene-editing assay, RecE/RecT homologs, DYNLT1 locus; conditions: HEK293 cells, MCP fusion, n=3
Experimental: as §1, §2, §3

[1] = system: endogenous genomic loci (DYNLT1, HSP90AA1, AAVS1, ACTB) in HEK293T cells; experiment: Kilobase mKate knock-in assay in HEK293T cells (flow cytometry); conditions: for HDR / knock-in efficiency enhancement: five genomic sites (EMX1, VEGFA, HSP90AA1, DYNLT1, AAVS1), wtCas9
Experimental: as §1, §2
HEK293T, Hela, HepG2 and U2OS cells were seeded into 96-well plates (Corning) 12-24 hours prior to transfection at a density of 30,000 cells/well, and 250 ng of total DNA was transfected per well. Cells were transfected with Lipofectamine 3000 (Life Technologies) following the manufacturer's instructions when the cell are ˜70% confluence. In brief, we used 250 ng total DNA, 0.4 ul Lip3000 reagent, mixed with 10 ul of Opti-MEM per well. For the 250 ng DNA, we used 160 ng of dCas9-SSAP guide RNA plasmids (for double sgRNAd design, use equal amount of the two guide RNA plasmids, e.g., 80 ng each), 60 ng of pMCP-RecT or GFP control plasmid (addgene #64539) and 30 ng of PCR template DNA (the PCR primer could be found in Table 7, the template sequence could be found in Supplementary Sequences). Three days later, the cells were analyzed using FACS.
as §2, with “mKate” for “Fluorescence-activated cell sorting (FACS) mKate”, “transfection or 96 hours after electroporation,” for “transfection,”, “twice” for “once”, “300 g” for “300×G”, “analyzed” for “sorted”, “after” for “of”

Row | Molecule | Mean mKate+ (%), HSP90AA1 (HSP90AA1 locus) | Mean mKate+ (%), DYNLT1 (DYNLT1 locus) | HDR / knock-in efficiency enhancement [1] | activity in no-recruitment control ([1]; PCP no-recruitment control)
1 | B1 | 5.7200% | 9.9567% | – | –
2 | B2 | 4.7200% | 6.7700% | – | –
3 | B3 | 3.7067% | 5.1767% | variable increases in knock-in efficiency | –
4 | B4 | – | – | variable increases in knock-in efficiency | –
5 | B5 | 5.7100% | 6.0167% | – | –
6 | B6 | – | – | – | had activities without recruitment
7 | B7 | 5.6900% | 5.6333% | – | –
8 | B8 | 6.0500% | 5.0700% | – | –
9 | B9 | 5.2333% | 7.8033% | – | –
